Patent publication US20040202655A1
“And” between values parts separate entries of the source, which are not always exact repeats. Equal entries are not always repeated.

Tests used:
[1] = target: human IGF-I receptor on cells (NIH-3T3 fibroblasts expressing the human IGF-IR; DU145 cells) (human) (UniProt P08069); assay: cell-based or functional assay
[2] = target: human IGF-I receptor on cells (NIH-3T3 fibroblasts expressing the human IGF-IR; DU145 cells) (human) (UniProt P08069); assay: competition with 125I-IGF-I, NIH-3T3 cells expressing human IGF-1R, 37 C
[3] = target: human IGF-I receptor on cells (NIH-3T3 fibroblasts expressing the human IGF-IR; DU145 cells) (human) (UniProt P08069); assay: competition with 125I-IGF-II, NIH-3T3 cells expressing human IGF-1R, 37 C
[4] = target: human IGF-I receptor on cells (NIH-3T3 fibroblasts expressing the human IGF-IR; DU145 cells) (human) (UniProt P08069); assay: competition with 125I-IGF-I, NIH-3T3 cells expressing human IGF-1R, 4 C
[5] = target: human IGF-I receptor on cells (NIH-3T3 fibroblasts expressing the human IGF-IR; DU145 cells) (human) (UniProt P08069); assay: competition with 125I-IGF-II, NIH-3T3 cells expressing human IGF-1R, 4 C

Row | IC50 (nM), IGF-1 dependent proliferation of NIH-3T3/hIGF-1R cells (BrdU ELISA) [1] [nM] | IC50 [2] | IC50 [3] | IC50 [4] | IC50 [5] | Substance
1 | > 70 | > 50 nM | > 50 nM |  |  | MOPC-21 (#M-7894, Sigma), IgG1 isotype control (antibody)
2 | > 70 |  | > 50 nM |  |  | UPC-10 (#F-0528), IgG2a isotype control (antibody)
3 |  | 1.7 nM and 1.9 nM | 4 nM and 6.5 nM | 3 nM and 1.5 nM and 4 nM | 1 nM and 0.6 nM | mouse anti-IGF-1R monoclonal antibody 24-57 (#MS-643-PABX, NeoMarkers)
4 | > 70 | 1.6 nM and 1.9 nM | > 50 nM | 3.5 nM |  | mouse anti-IGF-1R monoclonal antibody alpha IR3 (#GR11SP2, Oncogene Research Products)
